According to the supplement of paper PMC9732359:
± gives the uncertainty stated by the source.

Assay: protein stability index of a GFP-peptide fusion (yeast GPS) (PSI 1-4); higher = more stable; sorted into four equal gates, so the index is relative within each strain
Procedure, shortened: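 Plasmids in a pooled yeast library fused tiled 17-residue yeast protein peptides downstream of GFP and also expressed Cherry. Mid-log cultures grown without leucine were sorted into four equal gates by GFP/Cherry fluorescence ratio. Each gate's plasmids were PCR-amplified and Illumina-sequenced, and reads were matched to strains by barcodes. The protein stability index is derived by multiplying each gate's read frequency by its gate number and summing the results.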

| Sequence | protein stability index (doa10∆) | protein stability index (pdr5∆) | protein stability index (san1∆) | protein stability index (ubr1∆) |
| --- | --- | --- | --- | --- |
| VTQSNILSQQFDKIIKI [SRB8] | 2.72 ± 0.07 | 2.96 ± 0.071 | 2.95 ± 0.056 | 2.89 ± 0.045 |
| FGDTKSESKQLGNTSSV [SWI3] | 3.54 ± 0.12 | 3.16 ± 0.081 | 3.13 ± 0.066 | 3.35 ± 0.05 |
| GSSAGMNGRSLTYAQQQ [SNF6] | 2.99 ± 0.083 | 3.15 ± 0.081 | 3.03 ± 0.058 | 3.24 ± 0.044 |
| SIDSTSRIELELKNIGL [ECM29] | 2.59 ± 0.052 | 2.75 ± 0.045 | 2.74 ± 0.042 | 2.44 ± 0.028 |
| HGLILELQKIWQIEEAG [SRB5] | 2.86 ± 0.094 | 2.93 ± 0.091 | 3.19 ± 0.048 | 3.14 ± 0.043 |
| DTCAVSFDAVSDSIELL [YJR042W/NUP85] | 3.04 ± 0.12 | 3.46 ± 0.1 | 2.51 ± 0.25 | 2.65 ± 0.15 |
| VSSRVRGYTCQFVDMVL [FAS1] | 1.76 ± 0.09 | 1.94 ± 0.07 | 1.44 ± 0.094 | 2.02 ± 0.081 |
| IYHGNHDVGELFWKVKE [PRE2] | 1.9 ± 0.063 | 1.95 ± 0.066 | 2.02 ± 0.084 | 2.45 ± 0.049 |
| IYDSEDPQQVFDERIKF [RPN3] | 3.05 ± 0.11 | 3.09 ± 0.089 | 3.23 ± 0.08 | 2.89 ± 0.06 |
| FKLVSTPSSNSNSSELE [MED1] | 1.85 ± 0.058 | 2.29 ± 0.062 | 2.35 ± 0.057 | 2.84 ± 0.046 |
| KYREGQVLFQGLIYSFN [POP1] | 2.46 ± 0.12 | 2.11 ± 0.081 | 2.46 ± 0.065 | 2.42 ± 0.11 |
| NLSLYEATAASHERFFL [CSN12] | 2.35 ± 0.065 | 2.73 ± 0.072 | 2.08 ± 0.12 | 2.62 ± 0.065 |
| PHTPVTRKGYIPSSKYA [YLR018C/POM34] | 3.15 ± 0.065 | 3.18 ± 0.089 | 2.96 ± 0.082 | 3.07 ± 0.052 |
| VDNTTEQSNSRKRTRSE [YCG1] | 3.27 ± 0.18 |  | 2.83 ± 0.1 |  |
| EYLKRVSVPVSGQKTNR [SIR3] | 2.54 ± 0.1 | 2.52 ± 0.087 | 3.06 ± 0.13 | 2.83 ± 0.16 |
| KEFKGIKVTVQLKIQNR [RPL12A] | 1.3 ± 0.08 | 1.62 ± 0.071 |  | 2.4 ± 0.09 |
| YSKDAKEIYYTPDPSEL [FAS2] | 2.44 ± 0.026 | 2.81 ± 0.028 | 2.6 ± 0.026 | 2.619 ± 0.024 |
| EIIADWIWDMNVHGSLE [BRR2] | 1.89 ± 0.1 | 2.43 ± 0.095 | 2.88 ± 0.085 | 2.18 ± 0.054 |
| TKGDTSKATGAPSANQG [RTT102] | 3.18 ± 0.065 | 3.35 ± 0.074 | 3.29 ± 0.045 | 3.24 ± 0.059 |
| LEGITTTIDSLNAELES [SMC3] | 1.57 ± 0.088 | 1.77 ± 0.15 | 2.27 ± 0.17 | 3.14 ± 0.1 |
| IAAYIRRHRNPDLQFIV [SMC1] | 1.16 ± 0.048 | 1.21 ± 0.047 | 1.2 ± 0.079 | 1.07 ± 0.04 |
| WCTTCKSAENIIKMTIP [RET1] | 3.08 ± 0.077 | 3.1 ± 0.095 | 3.11 ± 0.067 | 3.03 ± 0.071 |
| DLSWSKQTDTGITHFRA [PRP8] | 2.85 ± 0.085 | 3.11 ± 0.057 | 3 ± 0.055 | 3.02 ± 0.049 |
| CSDFVKILNLEKPLILA [NUT1] | 2.01 ± 0.097 | 1.39 ± 0.064 | 1.34 ± 0.17 | 1.08 ± 0.071 |
| SGTYHLNCGNGMGIGFI [POP1] | 3.07 ± 0.077 | 2.93 ± 0.063 | 2.44 ± 0.077 | 3.11 ± 0.041 |
| LGHKELKVRKGHIAKLM [RPB2] | 2.54 ± 0.066 | 2.53 ± 0.064 | 1.97 ± 0.1 | 2.72 ± 0.047 |

| Sequence | protein stability index (doa10∆) | protein stability index (pdr5∆) | protein stability index (san1∆) | protein stability index (ubr1∆) |
| --- | --- | --- | --- | --- |
| EESISKFPDMGSLWVEF [RPB5] | 2.53 ± 0.073 | 2.98 ± 0.1 | 2.77 ± 0.1 | 2.71 ± 0.1 |
| ITIFSPEGRLYQVEYAF [SCL1] | 2.58 ± 0.15 | 2.6 ± 0.11 | 2.1 ± 0.092 | 2.37 ± 0.068 |
| NLQIRQLFNWCLMRSLH [DSN1] | 1.26 ± 0.092 | 1.19 ± 0.061 | 1.04 ± 0.17 | 1.12 ± 0.13 |
| TWRTQLAASEIGISIVG [ECM29] | 1.72 ± 0.065 | 2 ± 0.083 | 1.68 ± 0.071 | 1.88 ± 0.037 |
| KILQKRSISKELIVSEE [SIR3] | 2.37 ± 0.064 | 2.52 ± 0.075 | 2.28 ± 0.066 | 2.37 ± 0.052 |
| EKLNKTDENTPSADGAD [ITC1] | 3.35 ± 0.098 | 3.29 ± 0.061 | 3.01 ± 0.054 | 3.05 ± 0.05 |
| EYSDNFPVSLSQPSKKS [SIR4] | 3.08 ± 0.045 | 3.05 ± 0.046 | 2.98 ± 0.04 | 3.1 ± 0.031 |
| HTSPHQPSDVKPTSHKQ [SIR4] | 2.76 ± 0.057 | 3.08 ± 0.059 | 2.9 ± 0.047 | 2.52 ± 0.044 |
| ATASAIAATAVASLVLA [RPL4A] | 2.37 ± 0.1 | 1.78 ± 0.071 | 1.91 ± 0.17 | 1.88 ± 0.082 |
| ADKRGVLTGGYLDQHKR [SMC3] | 2.46 ± 0.11 | 2.54 ± 0.1 | 2.72 ± 0.074 | 2.94 ± 0.052 |
| FVKNIRMLSFEDISKAT [RPN9] | 2.66 ± 0.063 | 1.86 ± 0.076 | 1.91 ± 0.078 | 1.93 ± 0.053 |
| SIRRQDYINELSNSNRF [REC8] | 2.82 ± 0.17 | 3.21 ± 0.12 | 3.4 ± 0.092 | 3.2 ± 0.12 |
| ELDQFWQEYSSVFKGGM [SRP14] | 2.68 ± 0.073 | 2.66 ± 0.079 | 2.86 ± 0.098 | 3.13 ± 0.081 |
| AIVLPMKRADKFKDMGI [RPT5] | 2.39 ± 0.096 | 3.11 ± 0.24 | 3.09 ± 0.17 | 3.09 ± 0.16 |
| QLFNWCLMRSLHKLELK [DSN1] | 1.17 ± 0.058 | 1.26 ± 0.059 | 1.14 ± 0.13 | 1.19 ± 0.058 |
| GSIRVHKSGKLSVKIGN [RPC53] | 1.27 ± 0.052 | 1.44 ± 0.047 | 1.75 ± 0.068 | 1.69 ± 0.04 |
| HTEDTVNESRNSDDIID [SRB5] | 2.31 ± 0.061 | 2.52 ± 0.056 | 2.43 ± 0.071 | 2.46 ± 0.055 |
| LKESYSQKHNGRILKWL [CDC53] | 2.01 ± 0.059 | 2.69 ± 0.057 | 2.34 ± 0.055 | 2.14 ± 0.056 |
| IFIATQLEKKIRFVCLS [BRR2] | 2.17 ± 0.2 | 1.86 ± 0.11 |  | 1.49 ± 0.074 |
| ITSFLLSKMENVNLDDY [NAS6] | 1.95 ± 0.11 | 1.54 ± 0.052 | 1.87 ± 0.12 | 1.85 ± 0.057 |
| MYGLTMEWPKDMLKYKE [ITC1] | 3.53 ± 0.17 | 3.1 ± 0.28 |  | 3.07 ± 0.2 |
| MKTKTINAQGEEIVVVA [PRP8] | 1.72 ± 0.089 | 1.92 ± 0.12 | 1.36 ± 0.19 | 1.52 ± 0.06 |
| ILSLATEGCIGLSQTEA [MCD1] | 2.58 ± 0.056 | 2.49 ± 0.068 | 2.81 ± 0.09 | 2.4 ± 0.062 |
| LKNLLRSNFRVNLSQEA [SNU114] | 2.05 ± 0.093 | 2.26 ± 0.089 | 2.58 ± 0.11 | 2.58 ± 0.11 |
| KFLREVFVDGEANWPLP [RPO21] | 2.85 ± 0.085 | 3.16 ± 0.079 | 3.04 ± 0.093 | 3.12 ± 0.074 |
